Source: the supplement of paper PMC7125110
± gives the standard error. For some assays here: Variants at the floor of the assay were thinned out.

B1: glmS ribozyme (parent)
chain: AUAAAAGCGCCAGAACUACAGAAAUGUAGUUGACGAGGAGGAGGUUUAUCGAAUUUUCGGCGGAUGCCUCCAAA

Experiments:
Conditions in all cases: with glucosamine-6-phosphate
glucosamine-6-phosphate [1] = variants of: B1; test: kcat; higher = faster cleavage; RNA array
Summary of the method: (§1)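 Weighted Michaelis–Menten fits across concentrations supplied kcat and KM, based on kobs from one- or two-exponential decay fits to normalised per-tile medians. The data came from barcoded ribozyme variants transcribed in situ by E. coli RNA polymerase on sequenced MiSeq chips and tracked at 37 °C by a hybridised Cy3 probe. Glucosamine-6-phosphate (40 μM to 10 mM) in HEPES/KCl/Mg(OAc)2 buffer was flowed in.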

glucosamine-6-phosphate [2] = variants of: B1; test: self-cleavage kobs at 2500 uM GlcN6P; higher = faster cleavage; RNA array
Summary of the method: as §1

glucosamine-6-phosphate [3] = variants of: B1; test: KM; higher = weaker cofactor use; RNA array
Summary of the method: as §1

glucosamine-6-phosphate [4] = variants of: B1; test: self-cleavage kobs at 10000 uM GlcN6P; higher = faster cleavage; RNA array
Summary of the method: as §1

glucosamine-6-phosphate [5] = variants of: B1; test: self-cleavage kobs at 40 uM GlcN6P; higher = faster cleavage; RNA array
Summary of the method: as §1

glucosamine-6-phosphate [6] = variants of: B1; test: self-cleavage kobs at 160 uM GlcN6P; higher = faster cleavage; RNA array
Summary of the method: as §1

glucosamine-6-phosphate [7] = variants of: B1; test: self-cleavage kobs at 640 uM GlcN6P; higher = faster cleavage; RNA array
Summary of the method: as §1

Variant	kcat (glucosamine-6-phosphate [1]) [s⁻¹]	self-cleavage kobs at 2500 uM GlcN6P (glucosamine-6-phosphate [2]) [s⁻¹]	KM (glucosamine-6-phosphate [3]) [µM]	self-cleavage kobs at 10000 uM GlcN6P (glucosamine-6-phosphate [4]) [s⁻¹]	self-cleavage kobs at 40 uM GlcN6P (glucosamine-6-phosphate [5]) [s⁻¹]	self-cleavage kobs at 160 uM GlcN6P (glucosamine-6-phosphate [6]) [s⁻¹]	self-cleavage kobs at 640 uM GlcN6P (glucosamine-6-phosphate [7]) [s⁻¹]
G29U C68G	3.07e-05 ± 6.3e-06	3.95e-05 ± 1.1e-05					
A14U C50U	4.31e-05 ± 1.5e-06	3.01e-05 ± 1.1e-05	1180 ± 170	3.81e-05 ± 1.1e-05			
G29C A48C	1.23e-05 ± 3.5e-06				< 1e-05	< 1e-05	
G29U A52G	0.00036 ± 7.1e-05	0.000127 ± 2e-05	3340 ± 1200	0.00029 ± 3.3e-05			6.73e-05 ± 9.7e-06
A14U C71U	0.00742 ± 0.0032	0.00252 ± 0.00058		0.00786 ± 0.00099	0.000206 ± 3.1e-05	0.000492 ± 8.1e-05	0.00138 ± 0.00019
A15C C67G	0.0001315 ± 6.7e-07	8.12e-05 ± 1.4e-05	1530 ± 22	0.000114 ± 1.8e-05			3.9e-05 ± 1.4e-05
A15C C67A	0.000713 ± 0.00031	0.000389 ± 0.00012		0.000858 ± 0.00022	5.14e-05 ± 1.2e-05	0.000103 ± 1.7e-05	0.000552 ± 0.0001
C16G C67A	0.00104 ± 0.00042	0.000618 ± 0.00021		0.000956 ± 0.00019	3.35e-05 ± 7e-06		0.000169 ± 6.1e-05
C16G U55G	0.0033 ± 0.0015	0.00148 ± 0.00031		0.00368 ± 0.00057	0.000147 ± 2.3e-05	0.000227 ± 5.1e-05	0.000789 ± 0.00012
C16G U56A	0.00335 ± 0.00047	0.00135 ± 0.00026	2810 ± 590	0.00286 ± 0.00043	5.21e-05 ± 9.6e-06	0.000189 ± 6.3e-05	0.000593 ± 0.00014
G26U U65G	0.00661 ± 0.0013	0.00291 ± 0.0011	4570 ± 1200	0.00449 ± 0.001	6.93e-05 ± 3.2e-05	0.00028 ± 0.00012	0.000733 ± 0.00016
C16A G66A	0.00167 ± 9.1e-05	0.000633 ± 0.00013	4130 ± 370	0.00118 ± 0.00018		6.8e-05 ± 3.1e-05	0.000223 ± 5e-05
C16A G66C	6.9e-05 ± 1.7e-05			2.41e-05 ± 1.1e-05	< 1e-05		
A15C U65C	7.01e-05 ± 1.5e-05	9.83e-05 ± 2.2e-05		6.14e-05 ± 1e-05			
A15C C70G	7.11e-05 ± 7.6e-06	8.13e-05 ± 1e-05		5.86e-05 ± 9.3e-06		3.9e-05 ± 9.7e-06	6.25e-05 ± 8.5e-06
C16A U45G	0.000271 ± 2.9e-06	0.000144 ± 3.4e-05	2200 ± 54	0.000222 ± 2.7e-05			6.15e-05 ± 1.2e-05

Variant	kcat (glucosamine-6-phosphate [1]) [s⁻¹]	self-cleavage kobs at 2500 uM GlcN6P (glucosamine-6-phosphate [2]) [s⁻¹]	KM (glucosamine-6-phosphate [3]) [µM]	self-cleavage kobs at 10000 uM GlcN6P (glucosamine-6-phosphate [4]) [s⁻¹]	self-cleavage kobs at 40 uM GlcN6P (glucosamine-6-phosphate [5]) [s⁻¹]	self-cleavage kobs at 160 uM GlcN6P (glucosamine-6-phosphate [6]) [s⁻¹]	self-cleavage kobs at 640 uM GlcN6P (glucosamine-6-phosphate [7]) [s⁻¹]
A14G U54C	0.151 ± 0.0085		4420 ± 270	0.105 ± 0.042	0.00134 ± 0.00025	0.00536 ± 0.00096	0.0185 ± 0.0064
A14U G43U	< 1e-05				< 1e-05		
G29C A39G	0.00594 ± 0.0022	0.00223 ± 0.00037		0.00525 ± 0.00064	0.000107 ± 1.2e-05	0.000305 ± 6.8e-05	0.000768 ± 0.00012
A14U C50U C58U G60U	< 1e-05				< 1e-05		< 1e-05
A14U C58A	0.000695 ± 4.9e-05	0.000346 ± 4.3e-05	2220 ± 300	0.000594 ± 7.5e-05		5.03e-05 ± 1.2e-05	0.000162 ± 3.2e-05
C16G U57A C68U	4.17e-05 ± 9.1e-06	5.4e-05 ± 2.1e-05					
G29U G38C C58G C68A C71A	5.03e-05 ± 2.1e-05	8.03e-05 ± 4e-05					
C16U G63U	1.26e-05 ± 2.3e-06						
G29A A53G	0.00571 ± 0.0021	0.00162 ± 0.00059	3380 ± 1700	0.00483 ± 0.00087	0.000136 ± 3.6e-05	0.000249 ± 4.3e-05	0.000915 ± 0.00019
A15U U45G	0.000918 ± 0.00015	0.000552 ± 8.4e-05	2150 ± 560	0.000705 ± 9.6e-05		5.29e-05 ± 1e-05	0.000248 ± 3.2e-05
A15U U45C	0.000662 ± 6.5e-05	0.000187 ± 4.3e-05	5870 ± 1000	0.000419 ± 4.9e-05			6.91e-05 ± 1.5e-05
G29C G66U	6.74e-05 ± 1.2e-05	7.9e-05 ± 2e-05		5.98e-05 ± 1e-05			
A15U C16G	0.00121 ± 0.00041	0.000786 ± 0.0002	2570 ± 1300	0.000952 ± 0.00022	2.88e-05 ± 1.4e-05	8.8e-05 ± 1.9e-05	0.000169 ± 5.1e-05
C16G U46G	0.000671 ± 0.00023	0.000703 ± 0.00022		0.000514 ± 0.00016		5.87e-05 ± 2.1e-05	0.000167 ± 4e-05
A14U U31C	0.00342 ± 0.00056	0.00229 ± 0.00027	1450 ± 340	0.00303 ± 0.0006	0.00012 ± 1.9e-05	0.000327 ± 3.9e-05	0.000956 ± 0.00011
